Results taken from doi:10.1101/2025.03.04.641557 (bioRxiv, 2025).
Residue numbers refer to the chain shown, from its start. Numbers in names are those of the source.

B1: 3X-Flag tagged full length human MIDN^WT (midnolin, 468-aa isoform) (natural protein)
chain: MEPQPGGARSCRRGAPGGACELGPAAEAAPMSLAIHSTTGTRYDLAVPPDETVEGLRKRLSQRLKVPKERLALLHKDTRLSSGKLQEFGVGDGSKLTLVPTVEAGLMSQASRPEQSVMQALESLTETQVSDFLSGRSPLTLALRVGDHMMFVQLQLAAQHAPLQHRHVLAAAAAAAAARGDPSIASPVSSPCRPVSSAARVPPVPTSPSPASPSPITAGSFRSHAASTTCPEQMDCSPTASSSASPGASTTSTPGASPAPRSRKPGAVIESFVNHAPGVFSGTFSGTLHPNCQDSSGRPRRDIGTILQILNDLLSATRHYQGMPPSLAQLRCHAQCSPASPAPDLAPRTTSCEKLTAAPSASLLQGQSQIRMCKPPGDRLRQTENRATRCKVERLQLLLQQKRLRRKARRDARGPYHWSPSRKAGRSDSSSSGGGGSPSEASGLGLDFEDSVWKPEVNPDIKSEFVVA
B2: 3X-Flag tagged full length human MIDN N385A (purified) (natural protein)
chain: B1 chain with N385A
B3: 3X-Flag tagged full length human MIDN K391A (purified) (natural protein)
chain: B1 chain with K391A
B4: 3X-Flag tagged full length human MIDN L395K (purified) (natural protein)
chain: B1 chain with L395K
B5: 3X-Flag tagged full length human MIDN R406A (purified) (natural protein)
chain: B1 chain with R406A
B6: 3X-Flag tagged full length human MIDN R403A (purified) (natural protein)
chain: B1 chain with R403A
B7: 3X-Flag tagged full length human MIDN L399K (purified) (natural protein)
chain: B1 chain with L399K

target: HA-tagged MIDN^△α-Helix-C (human) (UniProt Q504T8); experiment: co-IP

Row | reduction of binding relative to WT MIDN | Molecule
1 | 60% | Flag-tagged RPN11 (from UniProt O00487 1-310) (enzyme)

target: human 26S proteasome (proteasome holoenzyme: 20S core particle with 19S regulatory particle) (human, UniProt P35998;P62191;P43686;P62333;P17980;P62195;Q13200;Q99460;O43242;O00232;O00231;Q15 …); experiment: pull-down

Row | binding result | Molecule
2 | binds | B1
3 | binds | B2
4 | binds | B3
5 | binds | B4
6 | binds | B5
7 | binds | B6
8 | binds | B7
